T1: human IL-18BP (human, UniProt O95998 31-194)
T1 construct: UniProt printed as 095998; also called hIL-18BP
T1 sequence: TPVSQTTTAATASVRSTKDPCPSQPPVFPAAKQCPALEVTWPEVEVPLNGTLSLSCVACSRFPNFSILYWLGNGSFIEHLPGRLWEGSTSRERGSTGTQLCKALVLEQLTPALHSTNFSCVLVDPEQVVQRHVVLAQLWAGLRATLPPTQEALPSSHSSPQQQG


target: T1, human IL-18BP; test: BLI, apparent KD

Binder | Kd [nM]
SA301a HC-N58R (antibody, name in Kabat numbering, V domains shown, IgG1 kappa) VH: QVQLQESGPGLVKPSQTLSLTCTVSGYSITSDYNSHWIRQPPGKGLEWIGYIHYSGSTRYNPSLKSRVTISRDTSKNQFSLKLSSVTAADTAVYYCARNYGSIYVNYFDYWGQGTLVTVSS VL: EIVLTQSPATLSLSPGERATLSCSASSSVSYMYWYQQKPGQAPRPLIYRTSNLASGIPARFSGSGSGTDFTLTISSLEPEDFAVYYCQQYHSYPTFGGGTKVEIK | 0.46
SA301a HC-N58S (antibody, name in Kabat numbering, V domains shown, IgG1 kappa) VH: QVQLQESGPGLVKPSQTLSLTCTVSGYSITSDYNSHWIRQPPGKGLEWIGYIHYSGSTSYNPSLKSRVTISRDTSKNQFSLKLSSVTAADTAVYYCARNYGSIYVNYFDYWGQGTLVTVSS VL: EIVLTQSPATLSLSPGERATLSCSASSSVSYMYWYQQKPGQAPRPLIYRTSNLASGIPARFSGSGSGTDFTLTISSLEPEDFAVYYCQQYHSYPTFGGGTKVEIK | 1.37
SA301a HC-S54D (antibody, name in Kabat numbering, V domains shown, IgG1 kappa) VH: QVQLQESGPGLVKPSQTLSLTCTVSGYSITSDYNSHWIRQPPGKGLEWIGYIHYDGSTNYNPSLKSRVTISRDTSKNQFSLKLSSVTAADTAVYYCARNYGSIYVNYFDYWGQGTLVTVSS VL: EIVLTQSPATLSLSPGERATLSCSASSSVSYMYWYQQKPGQAPRPLIYRTSNLASGIPARFSGSGSGTDFTLTISSLEPEDFAVYYCQQYHSYPTFGGGTKVEIK | 0.22
SA301a HC-S54A (antibody, name in Kabat numbering, V domains shown, IgG1 kappa) VH: QVQLQESGPGLVKPSQTLSLTCTVSGYSITSDYNSHWIRQPPGKGLEWIGYIHYAGSTNYNPSLKSRVTISRDTSKNQFSLKLSSVTAADTAVYYCARNYGSIYVNYFDYWGQGTLVTVSS VL: EIVLTQSPATLSLSPGERATLSCSASSSVSYMYWYQQKPGQAPRPLIYRTSNLASGIPARFSGSGSGTDFTLTISSLEPEDFAVYYCQQYHSYPTFGGGTKVEIK | 0.11
SA301a HC-S56A (antibody, name in Kabat numbering, V domains shown, IgG1 kappa) VH: QVQLQESGPGLVKPSQTLSLTCTVSGYSITSDYNSHWIRQPPGKGLEWIGYIHYSGATNYNPSLKSRVTISRDTSKNQFSLKLSSVTAADTAVYYCARNYGSIYVNYFDYWGQGTLVTVSS VL: EIVLTQSPATLSLSPGERATLSCSASSSVSYMYWYQQKPGQAPRPLIYRTSNLASGIPARFSGSGSGTDFTLTISSLEPEDFAVYYCQQYHSYPTFGGGTKVEIK | 0.2
SA301a HC-N58T (antibody, name in Kabat numbering, V domains shown, IgG1 kappa) VH: QVQLQESGPGLVKPSQTLSLTCTVSGYSITSDYNSHWIRQPPGKGLEWIGYIHYSGSTTYNPSLKSRVTISRDTSKNQFSLKLSSVTAADTAVYYCARNYGSIYVNYFDYWGQGTLVTVSS VL: EIVLTQSPATLSLSPGERATLSCSASSSVSYMYWYQQKPGQAPRPLIYRTSNLASGIPARFSGSGSGTDFTLTISSLEPEDFAVYYCQQYHSYPTFGGGTKVEIK | 0.47
SA301a HC-N58Y (antibody, name in Kabat numbering, V domains shown, IgG1 kappa) VH: QVQLQESGPGLVKPSQTLSLTCTVSGYSITSDYNSHWIRQPPGKGLEWIGYIHYSGSTYYNPSLKSRVTISRDTSKNQFSLKLSSVTAADTAVYYCARNYGSIYVNYFDYWGQGTLVTVSS VL: EIVLTQSPATLSLSPGERATLSCSASSSVSYMYWYQQKPGQAPRPLIYRTSNLASGIPARFSGSGSGTDFTLTISSLEPEDFAVYYCQQYHSYPTFGGGTKVEIK | 0.41
SA301a HC-S54F (antibody, name in Kabat numbering, V domains shown, IgG1 kappa) VH: QVQLQESGPGLVKPSQTLSLTCTVSGYSITSDYNSHWIRQPPGKGLEWIGYIHYFGSTNYNPSLKSRVTISRDTSKNQFSLKLSSVTAADTAVYYCARNYGSIYVNYFDYWGQGTLVTVSS VL: EIVLTQSPATLSLSPGERATLSCSASSSVSYMYWYQQKPGQAPRPLIYRTSNLASGIPARFSGSGSGTDFTLTISSLEPEDFAVYYCQQYHSYPTFGGGTKVEIK | 0.56
SA301a HC-N58V (antibody, name in Kabat numbering, V domains shown, IgG1 kappa) VH: QVQLQESGPGLVKPSQTLSLTCTVSGYSITSDYNSHWIRQPPGKGLEWIGYIHYSGSTVYNPSLKSRVTISRDTSKNQFSLKLSSVTAADTAVYYCARNYGSIYVNYFDYWGQGTLVTVSS VL: EIVLTQSPATLSLSPGERATLSCSASSSVSYMYWYQQKPGQAPRPLIYRTSNLASGIPARFSGSGSGTDFTLTISSLEPEDFAVYYCQQYHSYPTFGGGTKVEIK | 0.44
